The target in assay [1] is T1, Pyrococcus furiosus (Pfu) RNase P protein RPP30 (Pyrococcus furiosus).
T1 sequence (Q8TZS0 1-214, looked up): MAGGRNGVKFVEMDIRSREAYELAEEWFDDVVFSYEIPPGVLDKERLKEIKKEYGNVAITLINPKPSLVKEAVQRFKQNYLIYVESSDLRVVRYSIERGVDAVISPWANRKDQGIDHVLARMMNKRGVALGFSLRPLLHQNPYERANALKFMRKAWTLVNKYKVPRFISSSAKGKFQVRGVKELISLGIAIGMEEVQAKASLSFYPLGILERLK
Briefly: ITC; Pop5 (148 uM) titrated into RPP30 (14.8 uM); 55°C; no salt or 150 mM NaCl; smaller injections, higher Wiseman c value; two-site model.

Assay [2] has the same target. Briefly: ITC; Pop5 (87.2 uM) titrated into RPP30 (4.95 uM); 55°C; 10 mM sodium acetate pH 5 with 130 mM KCl; one-site model; apparent.
The target is the same in assay [3]. Put plainly: ITC; Pop5 (87.2 uM) titrated into RPP30 (9.89 uM); 55°C; 10 mM sodium acetate pH 5, no salt; one-site model; apparent.

B1: Pyrococcus furiosus (Pfu) RNase P protein Pop5, Cys72Ser variant (natural protein)
chain: MSERPKTLPPTLRDKKRYIAFKVISENQFNKDEIKEAIWNACLRTLGELGTAKAKPWLIKFDETTQTGIIRSDRNHVYDVIFSLTLVSDINGNKAIIKVLGVSGTIKRLKRKFLSQFGWR
Regarding B1, the stoichiometry N in assay [1], in assay [2] and in assay [3] was 1 throughout. Besides, the Kd in assay [2] stood at 3.5 nM; in assay [3] it was 124 nM.

Source of the values: paper PMC3227427.
